# Results reported in patent US20090041679A1.
# Where a chain is given by its changes, count along the chain named. Like-named read-outs stand apart in the source and are kept apart here.
# B1: BF1-1 (antibody, V domains shown)
# VH: EVQLVQSGPGLVKPSETLSLTCTVSGSSMRTHYWTWIRQPPGKGLEWIGNIYYSGSTDYNPSLKSRVTISVDTSKNQFSLKLSSVTAADTAVYFCARTKHFDILPGGVFDMWGRGTTVTVSS
# VL: SYELTQLPSVSVSPGQTATITCSGDRLGDKYACWYQQKPGQSPVLVIFQDTKRPSGIPERFSGSNSGNTATLTISGTQAMDEADYYCQAWDSNIGVFGGGTKLTVL
# B2: BF1-10 (antibody, V domains shown)
# VH: QVQLQESGPGLVKPSQTLSLTCAVSGGSISSRGYYWSWIRQPPGKGLEWIGYIFYTGGTDYNPSLKSRITISRDTPKNQISLNLSSVTAADTAVYYCARVVDGSSGYHHYYFDYWGQGTLVTVSS
# VL: DIQMTQSPASLAVSLGQRATISYRASKSVSTSGYSYMHWNQQKPGQPPRLLIYLVSNLESGVPARFSGSGSGTDFTLNIHPVEEEDAATYYCQHIRELTRSEGGPSWRSN
# B3: BF1-19 (antibody, V domains shown)
# VH: QVQLQESGPGLVKPSETLSLTCTVSGSSMRTHYWTWIRQPPGKGLEWIGNIYYSGSTDYNPSLKSRVTISVDTSKNQFSLKLSSVTAADTAVYFCARTKHFDILPGGVFDMWGRGTTVSS
# VL: B2 VL with Q3V, S106K, R108I
# Legend:
# [1] = target: purified H5N1 HA (influenza A virus H5N1)
# [2] = target: purified H5N1 HA (influenza A virus H5N1); remark: listed apart in the source
Binder,Kd [1] [nM],Kd [2] [nM]
B1,20.3,
B2,10.8,10 to 50
B3,48.2,10 to 50
